In assay [1] the target is T1, recombinant human GARP-proTGFβ1 complex (human, UniProt P01137 30-390; Q14392 20-627).
T1 construct: also called hGARP-proTGFβ1; hGARP
Put plainly: MSD-SET (solution equilibrium titration), % free antigen against Ab6 concentration. The procedure:
(§1) MSD-SET assays were performed to measure affinities of the antibodies at equilibrium. Briefly, each test antibody was diluted 3-5 fold and samples were mixed with biotinylated antigen in a 48-well dish. The SET samples were equilibrated for 20-24 hours at room temperature. Meanwhile, a capture plate was coated with IgG (20 nM) and incubated overnight at 4° C. or 30 minutes at room temperature, followed by a blocking step with 5% BSA. After the capture plate was washed three times, SET samples were added and incubated for 150 seconds. The plate was washed once to remove unbound complexes. 250 ng/ml SA-Sulfotag was added then washed 3 times. 2× Read Buffer was added, and signals from the labeled bound complexes were read with the use of QuickPlex™ SQ 120 instrument.
(§2) As an example, MSD standard plates (MSD) were coated with a 20 nM solution of monoclonal antibody in PBS for 30 min at room temperature or overnight at 4° C. […] After 20-24 hours of equilibration, the antibody-coated plate was blocked with Blocking Buffer A (MSD) for 30 minutes at room temperature and washed with wash buffer (PBS, 0.1% BSA, 0.05% Tween-20) before adding the equilibrated antibody-antigen complexes to the plate for exactly 2.5 minutes. […] After washing with wash buffer, plates were read in MSD read buffer (MSD) using the MESO QuickPlex SQ 120 (MSD). […]

Assay [2] addresses T2, recombinant human LRRC33-proTGFβ1 complex (human, UniProt P01137 30-390; Q86YC3 19-650).
T2 construct: also called hLRRC33-proTGFβ1; hLRRC33
The assay is described as above. As to the method: as §1, §2

Assay [3] concerns the target LTBP:proTGFβ1 (human). Put plainly: cell-based or functional assay.

T2 sequence (P01137 30-390 limits assumed, chain 1 of 2): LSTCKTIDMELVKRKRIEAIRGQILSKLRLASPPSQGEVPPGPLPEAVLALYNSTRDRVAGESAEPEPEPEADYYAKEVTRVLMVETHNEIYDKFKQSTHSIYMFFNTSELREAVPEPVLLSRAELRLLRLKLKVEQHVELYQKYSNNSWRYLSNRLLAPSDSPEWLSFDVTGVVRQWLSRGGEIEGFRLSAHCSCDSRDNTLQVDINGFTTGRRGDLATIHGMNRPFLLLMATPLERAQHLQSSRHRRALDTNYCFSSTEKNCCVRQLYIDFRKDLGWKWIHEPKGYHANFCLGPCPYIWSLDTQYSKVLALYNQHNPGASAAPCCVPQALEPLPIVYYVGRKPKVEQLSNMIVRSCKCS
T2 sequence (Q86YC3 other isoform, or with tags, fused parts or gaps limits assumed, chain 2 of 2): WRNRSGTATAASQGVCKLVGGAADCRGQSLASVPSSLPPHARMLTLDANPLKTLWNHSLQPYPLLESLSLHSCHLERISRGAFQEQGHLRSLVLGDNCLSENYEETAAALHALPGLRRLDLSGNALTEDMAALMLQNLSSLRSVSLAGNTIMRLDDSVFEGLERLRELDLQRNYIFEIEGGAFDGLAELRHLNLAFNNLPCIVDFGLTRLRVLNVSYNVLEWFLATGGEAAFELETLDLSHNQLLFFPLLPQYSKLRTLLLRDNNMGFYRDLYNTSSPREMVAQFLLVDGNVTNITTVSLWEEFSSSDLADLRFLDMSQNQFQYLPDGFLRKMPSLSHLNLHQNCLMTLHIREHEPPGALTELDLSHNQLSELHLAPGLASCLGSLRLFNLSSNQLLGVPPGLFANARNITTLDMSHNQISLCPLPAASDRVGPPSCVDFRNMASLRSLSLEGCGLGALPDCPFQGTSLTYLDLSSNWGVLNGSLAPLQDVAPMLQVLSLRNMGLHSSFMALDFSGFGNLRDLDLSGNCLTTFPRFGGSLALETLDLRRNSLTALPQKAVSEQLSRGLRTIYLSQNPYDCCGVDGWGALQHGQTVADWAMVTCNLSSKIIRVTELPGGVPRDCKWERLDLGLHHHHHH
T1 sequence (P01137 30-390, chain 1 of 2): as the sequence (P01137 30-390 limits assumed, chain 1 of 2) above
T1 sequence (Q14392 20-627, chain 2 of 2): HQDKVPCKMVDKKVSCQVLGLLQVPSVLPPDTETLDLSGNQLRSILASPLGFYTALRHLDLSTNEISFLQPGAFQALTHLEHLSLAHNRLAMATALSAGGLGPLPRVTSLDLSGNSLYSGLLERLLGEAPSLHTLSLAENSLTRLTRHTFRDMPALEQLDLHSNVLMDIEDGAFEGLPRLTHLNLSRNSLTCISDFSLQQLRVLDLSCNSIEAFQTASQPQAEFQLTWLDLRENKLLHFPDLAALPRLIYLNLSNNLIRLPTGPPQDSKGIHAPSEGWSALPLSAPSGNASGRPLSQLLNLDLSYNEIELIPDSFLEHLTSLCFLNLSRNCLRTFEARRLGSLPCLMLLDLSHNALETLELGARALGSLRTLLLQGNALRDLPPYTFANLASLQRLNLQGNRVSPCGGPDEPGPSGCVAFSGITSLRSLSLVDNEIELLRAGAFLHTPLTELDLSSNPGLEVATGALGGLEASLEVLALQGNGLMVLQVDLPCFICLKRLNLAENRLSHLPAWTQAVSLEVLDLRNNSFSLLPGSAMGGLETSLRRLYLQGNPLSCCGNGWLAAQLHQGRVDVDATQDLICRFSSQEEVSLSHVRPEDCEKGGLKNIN

B1: Ab6 (antibody, V domains shown)
VH: EVQLVESGGGLVQPGGSLRLSCTASGFTFSSFSMDWVRQAPGKGLEWVSYISPSADTIYYADSVKGRFTISRDNAKNTLYLQMNSLRAEDTAVYYCARGVLDYGDMLMPWGQGTLVTVSS
VL: DIQMTQSPSSLSASVGDRVTITCQASQDITNYLNWYQQKPGKAPKLLIYDASNLETGVPSRFSGSGSGTDFTFTISSLQPEDIATYYCQQADNHPPWTFGGGTKVEIKR
B1: the results for the “IC50 (read off the curve)” value in assay [1], in assay [2] and in assay [3] were approximately 30 pM, approximately 60 pM and approximately 1000 pM, respectively.

The values above are taken from patent US20210122814A1 (SCHOLAR ROCK, published 2021).
